For 4 molecules, Kd results are on record in patent publication US20150086564A1 (CENTRE NATIONAL DE LA RECHERCHE SCIENTIFIQUE CNRS, published 2015).

The target in assay [1] is T1, recombinant human sPLA2-IIA N1A mutant (human, UniProt P14555 22-144).
T1 construct: also called N1A sPLA2-IIA mutant
T1 sequence: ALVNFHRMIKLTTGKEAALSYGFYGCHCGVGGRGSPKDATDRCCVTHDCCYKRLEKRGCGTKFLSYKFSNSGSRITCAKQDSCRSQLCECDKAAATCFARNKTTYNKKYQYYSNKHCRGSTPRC
Description: indirect ELISA on coated sPLA2-IIA N1A, anti-mouse IgG-HRP detection, one-site saturation fit.

Assay [2] concerns the target T1, recombinant human sPLA2-IIA N1A mutant. The assay is described as follows: indirect ELISA on coated sPLA2-IIA N1A (50 ng/well), one-site saturation fit, relative Kd.
Assay [3] has the same target. The assay is described as follows: indirect ELISA on coated sPLA2-IIA N1A, streptavidin-HRP detection, one-site saturation fit. Background: ELISA stands for enzyme-linked immunosorbent assay.

B1: monoclonal anti-sPLA2-IIA antibody #6G2 (antibody, IgG1, V domains shown)
VH: QVQLQQSGAELVKPGASVKLSCKASGYTFTSYDINWVRQRPEQGLEWIGWIFPGDGSTEYNEKFKGKATLTTDKSSSTAYMQLSRLTSEDSAVYFCARWGITAFPLFDYWGQGTALTVSS
VL: DIVLTQSPASLAVSLGQRATISCRASESVDYDGDSYMNWYQQKPGQPPKLLIYAASNLESGIPARFSGSGSGTDFTLNIHPVEEEDAATYYCLQSNEAPWTFGGGTKLEIKR
notes: also called 6G2 antibody
The term Kd denotes the concentration at which binding is half-saturated. For the molecule B1, the Kd in assay [1] amounted to 0.0817 nM; in assay [2], 0.124 nM.

B2: biotinylated monoclonal antibody #6G2 (antibody, mouse IgG1, V domains shown)
VH: B1 VH
VL: B1 VL
modifications: biotinylated (Pierce kit ref. 21435), sites not stated
notes: also called #6G2-Biot; 6G2-biot
Consider B2, for which, in assay [3], the Kd was determined as 0.22 nM.

B3: monoclonal anti-sPLA2-IIA antibody #9C8 (antibody, IgG1, V domains shown)
VH: DVELVESGGGLVKLGGSLKLSCAASGFTFSSYYMSWVRQTPEKRLELVAAINSNGGSTYYPDTVKGRFTISRDNAKNTLYLQMSSLKSEDTALYYCARQGYGNFFDYWGQGTTLTVSS
VL: DVVMTQTPLSLPVSLGDQASISCRSSQSIVHSNGNTYLYWYLQKPGQSPKLLIYRVSNRFSGVPDRFSGSGSGTDFTLKISRVEAEDMGVYYCFQGTHVPRTFGGGTNLEIKR
notes: also called 9C8 antibody
Regarding B3, the figures for the Kd in assay [1] and in assay [2] were 1.17 nM and 1.71 nM, respectively.

B4: biotinylated monoclonal antibody #9C8 (antibody, mouse IgG1, V domains shown)
VH: B3 VH
VL: B3 VL
modifications: biotinylated (Pierce kit ref. 21435), sites not stated
notes: also called biotinylated #9C8
As to B4, the Kd in assay [3] is 3.34 nM.
